From patent US20230059341A1

Molecular target: Neonatal Fc Receptor (FcRn) (UniProt P55899)
Test: FcRn binding assay, BIACORE (SPR)

Neonatal Fc Receptor (FcRn), sequence (P55899 24-297 limits assumed, chain 1 of 2): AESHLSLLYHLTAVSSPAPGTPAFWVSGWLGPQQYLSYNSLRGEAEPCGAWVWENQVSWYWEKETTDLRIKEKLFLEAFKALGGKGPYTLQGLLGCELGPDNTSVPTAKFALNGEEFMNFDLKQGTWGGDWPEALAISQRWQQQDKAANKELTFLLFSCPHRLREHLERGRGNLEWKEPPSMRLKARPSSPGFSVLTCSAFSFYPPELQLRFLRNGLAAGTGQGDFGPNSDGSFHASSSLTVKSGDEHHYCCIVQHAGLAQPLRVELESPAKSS
Neonatal Fc Receptor (FcRn), sequence (P61769 21-119 limits assumed, chain 2 of 2, further chain): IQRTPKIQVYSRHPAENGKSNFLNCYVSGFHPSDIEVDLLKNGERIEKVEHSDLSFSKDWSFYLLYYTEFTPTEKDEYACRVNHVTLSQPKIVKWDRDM

Dostarlimab, base degraded, pH 9.0, 40° C., 1 week (antibody)
Kd: 2340 nM
